This is an account of results in patent US20140294844A1.

The assay deals with huPrP23-231 (human) (UniProt P04156).

A word on the IC50: it is the concentration needed to halve the response being measured. A lower IC50 goes with greater potency. One may read the Kd as the constant that tells how readily two partners part at equilibrium. Low readings indicate a tighter complex, high ones a looser complex. A word on the Ki: it is a measure of affinity in units of concentration, obtained from inhibition or displacement. A high value points to a looser hold on the target. In the case of ICSM-35 (antibody), the IC50 was found to be 10.4 nM, the dissociation constant (Kd) came out at 10 nM and the Ki came to 20 nM.
